From the DeepSol protein solubility set

Test: soluble on expression in E. coli; label from the status in PepcDB or PDB records

Q: With “MLVEFDNPPLCMKSNKDGSRLVVGFVDGSIRFYDTQQHEEEFQEIWKFQTKSSIRGVDLDEHKKRVYAVTKNRSLCVFDIDTGKRVRCILKCHRSVPTAICTLPPTALKSQQLATADESGEVKTWNLDPEVASENANIRKWQEQDEDINDLKVDVKSNLLATSSDGTLGAYDLRKAKLKMRSELMHSELYSVCGTNRSVYVGGEDGYVEVFNLNEYGNLLERVESGFEMGVNGIVELRSGLLGLTSQGSNRMRLLNVQPSKRLGYAGYHGDEKSDDDGIDAITISTDKSTVFTMISMSCTIKKWDMGPIIDEIPILRAQDAKSKKMRKTEGFFDGLVGPKNDSDSDDDDEPKSKKRRNDEDSDEEIDEEEQEEDDEEEEEDSD” as the sequence, how does the “soluble on expression in E. coli” value read?
A: not soluble

Q: With “MLQRTLAKSISVTGVGLHSGERVALTLHPAPENSGISFRRTDLDGEMGEQIKLTPYLINDTRLSSTIVTDKGVRVGTIEHIMSALSAYGIDNALIELNAPEIPIMDGSSLPFIYLLQDAGVVDQKAQKRFLKILKPVEIKEAGKWVRFTPYDGFKVTLTIEFDHPVFNRSSPTFEIDFAGKSYIDEIARARTFGFMHEVEMMRAHNLGLGGNLNNAIVIDDTDVLNPEGLRYPDEFVRHKILDAIGDLYIVGHPIIGAFEGYKSGHAINNALLRAVLADETAYDRVEFADSDDLPDAFHELNIRTCGLEHHHHHH” as the sequence, how does the “soluble on expression in E. coli” value read?
A: not soluble

Q: With “MSLKLKTLALSLLAAGVLAGCSSHSSNMANTQMKSDKIIIAHRGASGYLPEHTLESKALAFAQHSDYLEQDLAMTKDGRLVVIHDHFLDGLTDVAKKFPYRHRKDGRYYVIDFTLKEIQSLEMTENFETKDGKQAQVYPNRFPLWKSHFRIHTFEDEIEFIQGLEKSTGKKVGIYPEIKAPWFHHQNGKDIATETLKVLKKYGYDKKTDMVYLQTFDFNELKRIKTELLPQMGMDLKLVQLIAYTDWKETQEKDPKGYWVNYNYDWMFKPGAMAEVVKYADGVGPGWYMLVNKEESKPDNIVYTPLVKELAQYNVEVHPYTVRKDALPEFFTDVNQMYDALLNKSGATGVFTDFPDTGVEFLKGIKEGHHHHHH” as the sequence, how does the “soluble on expression in E. coli” value read?
A: soluble

Q: With “MIETSLDFSGLNDIAKDLEALSRAENNKVLRDATRAGAEVLKEEVIDRAPVRTGKLKKNVVVVTQKSRRRGEISSGVHIRGVNPRTGNSDNTMKANNPRNAFYWRFVELGTANMPAHPFVRPAYDTREEEAASVAIARMNQAIDEVLSK” as the sequence, how does the “soluble on expression in E. coli” value read?
A: not soluble

Q: With “MGSDKIHHHHHHMPEFMKPIHSVILIQNLQARIETCAEMAVNVFQNLNTASLLCPSNTGGWSIVQCLDHLNSYGDYYLPHIQKAFDTHMPGKPAEDVKSSWLGNYFTQLMLPDSGKKYKAFKKHIPKPRLDSAAVVATFIEQQEILLTYLEKAKKYDMNTIRISISIAPFIKLKLGDVFQFLVAHTERHVQQAQRNVPIYE” as the sequence, how does the “soluble on expression in E. coli” value read?
A: not soluble

Q: With “CIHSLKSEAIFFERTANFDGNTREKIIAMHVGYRIYARMEPVLSTCAIVAKTPWVLEKASPERLNELNRLEEEVISGADALVNNAVECGDLKFSPAIGADAIVFANWSIAFGSNALAQNASNSRCIQRIQDPFSVLHNANMLLDGLGWAPLSTEWDYRKTWRRVEQELFSEEIAYLETVNR” as the sequence, how does the “soluble on expression in E. coli” value read?
A: not soluble

Q: Which “soluble on expression in E. coli” value does the source give for “YLYLEITNRCNLKCEMCFKQYWEDKEGDMDWDLFLKILDDAKEFPELKMIYFGGIGEPSVHPRFMDMVREVKRRGFRLGMSTNGVLLEDKILEEFVKLGVDVVYFSMDAIPTPSNIVTLGHITSKVVESRIKKLVELKKRYKTEKPTIGVEVVATKENYKQLPEMAIYLRNLGVDSMLISNLIPMTKEH” here?
A: not soluble

Q: For “MGSDKIHHHHHHMRLVLSGYYGFYNVGDEAILQSIIKALYEEEPTLELVVLSNDPDYTRKMYGVEAVNRWDIRAIYKEIKRSSGLISGGGSLLQDKTSIKSILYYTGIMRIARFLKKPYYIYAQGIGPITKRQNRLLVKWQVSKAEYISVRDEDSFLYLKEIGIKKDIELVPDPVLACQSEGMKSEWLQKHSIQGKVIAVSVRYWDAKEDYMKKLADTLKKFKRDGYHILFVPMHGPFDQNASRDIINLMGEEAHMLPYKLDIHEKISIFSECSLLIGMRLHALILSAVANIPMVGISYDPKVDSFLQQVNQPIIGNVDGDWTAETLYNVAMKQLEQKEYIQAKLEQRVEELREQISTASRYIISDLNSKEFKKENVEFHK”, which “soluble on expression in E. coli” value is on record?
A: not soluble

Q: Which “soluble on expression in E. coli” value does the source give for “MRKLKMMLCVMMLPLVVVGCTSKQSVSQCVKPPPPPAWIMQPPPDWQTPLNGIISPSGNDWLEHHHHHH” here?
A: not soluble

Q: Which “soluble on expression in E. coli” value does the source give for “MSLSRPTKFRKVDFFPKSTCFIPLGKPKCEVEEIALKIEELEAIRLKDIKELNQEECAAKMEVSRQTFQNIIDSARKKIAIALTEGNAIAIGGGNFKSKFCKFKCLDCRNTYEINCENDKHMCPSCGSNNIVCNKKTGSCENLCKEGHHHHHH” here?
A: soluble

Q: For “MGSDKIHHHHHHMTLLIVGATGTLGRQVARRAIDEGYKVRCLVRSPKRAAFLKEWGAELVRGDLCQPQTLAEALEGVTAVIDAATSRATDSLTIKQVDWEGQIALIQAAKAASVERFIFFSIIDADKYPEVPLMEIKRCTELFLAESGINYTVLRLAGFMQGLIGQYGIPILEGQPVWVTGASSPVAYMDTLDIAKFAVRALSVPETEKQAFPVVGTRAWSAEEIINLCERLSGKEAKVRRMPINLLRAVRGLAKFFQWGWNIADRLAFTEVLASGRPLNASMDEVYTVFGLEKEQSTTLESYLQEYFSRILKKLKQLDYEKTKTKKQKDKKTPFKKVNS”, which “soluble on expression in E. coli” value is on record?
A: not soluble

Q: With “MSLTEKCVIKIGGSVLKDGSSLPRVMDIISHFRSPILVVSAFGGITDALYRFYEYDESRMDKLRDLLLMHLGILWKYNIEAHPEISIQDSSILDQDAYVSYGEKMSAFTLARFLTGNGIPAAPIYTDEAGLIVEEISKERTVDLEGSRAFFENIARVETSGKVPVVTGFFGIDRYGKTRILGRNSSDYSAVAVAAILGIREVILIKDVPGIYMNLEDRTSIVNRIDYETALRIVDRGSKVVHRAALRLAMKMGMNLLITSPENLESGTVIGDLFEGHHHHHH” as the sequence, how does the “soluble on expression in E. coli” value read?
A: soluble

Q: Which “soluble on expression in E. coli” value does the source give for “MRHISIFGTSSDAGKSTLTFVIAKILQRAGIRVAPFKAQNVSNNARVCDDGSEIAIAQSFQAEVLAIPTSYHLNPILLKSGINGQASVIVEGQVISQQDVLEYYRDLDTLKPAVQRCFETLAKMYDCIVAEGAGSPVELNLMDKDLSNIFIAKHYQTKIILVADIEKGGVFASVWGTYNLLPADLRSNVIGVIINKFRGDLSLFDEGIRIIEQAFKIPVLGVLPYMPFNLGFEDNASLQNFVQQPRQKKLKIGVIAYPYMSNYNDFEPLIADDEVLLEFINSPISLEHFDGVILPGSKLVIEDLHWLKTNGLFEQLQQRRKPIFAICGGYEMLFEQLHDPERIENLEPTTATGLGLIDDEIYFAKNKILNKAEYPIFGLNIAGFEMHHGISQKYPLYFQKDNIQGTFIHQVFDHNAFRTQYLRAICAQYQGFDFQLYKTEQINNFIEACRKRLNVKLILEAIQDQ” here?
A: not soluble

Q: For “MKNNADYIEMKVPAQPEYVGIIRLTLSGVASRMGYTYDEIEDLKIAVSEACTNAVQHAYKEDKNGEVSIRFGVFEDRLEVIVADEGDSFDFDQKQQDLGPYTPSHTVDQLSEGGLGLYLMETLMDEVRVQNHSGVTVAMTKYLNGERVDHDTTIKNYETN”, which “soluble on expression in E. coli” value is on record?
A: soluble

Q: With “MLEILYQDEWLVAVNKPSGWLVHRSWLDRDEKVVVMQTVRDQIGQHVFTAHRLDRPTSGVLLMGLSSEAGRLLAQQFEQHQIQKRYHAIVRGWLMEEAVLDYPLVEELDKIADKFAREDKGPQPAVTHYRGLATVEMPVATGRYPTTRYGLVELEPKTGRKHQLRRHLAHLRHPIIGDSKHGDLRQNRSGAEHFGLQRLMLHASQLSLTHPFTGEPLTIHAGLDDTWMQALSQFGWRGLLPENERVEFSAPSGQDGEISSLEHHHHHH” as the sequence, how does the “soluble on expression in E. coli” value read?
A: not soluble

Q: For “GSIPGLERALQQYTLEPSEKPFDLKSVPLATAPLAEQRTESTPVTAAKQPEKVAATRQEIFQEQLAAVPEFQGLGPLFKSSPEPVALTESETEYVIRCTKHTFTDHMVFQFDCTNTLNDQTLENVTVQMEPSEAYEVLCYVPARSLPYNQPGTCYTLVALPKEDPTAVACTFSCVMKFTVKDCDPTTGEADDEGYEDEYVLEDLEVTIADHIQKVMKLNFEAAWDEVGDEFQKEETFTLSTIKTLEEAVGNIVKFLGMHPCERSDKVPDNKNTHTLLLAGVFRGGHDILVRSRLLLLDTVTMQVTARSSEELPVDIVLASVG”, which “soluble on expression in E. coli” value is on record?
A: soluble

Q: With “MQKSSLISHRFSFCKVCGGKANGNHFGIQSCRACAAFFRRAANSKWSSMKCTTFGCADMLVPCKPCRLKRCQEQGMSTTNFQFDRDALKRLLVPKSVEKFVGRPESVIFCDMTESTSKTFIDIRPLIEKTSNILKNGAEGPIFGRNQLQKLANGFENYTNEISVKMIKKIGKSETADCWEYYITTTAKWLNYFNGFKLLSHELQVGKYVFFIEIFSK” as the sequence, how does the “soluble on expression in E. coli” value read?
A: not soluble

Q: Which “soluble on expression in E. coli” value does the source give for “MGSDKIHHHHHHMEKNYYLTKTEQRIFNVIKHAKIITVREVAELFPELSRNMICKALSSLEKKGYLYRIKNGLYLIQQAPTKGSIIIEDPYRIALAMFSGYIAFSSALRLYNLIEYEPFTVFVATPRKSKKVEIDNYIIQAVALGEKATGITLYNGVYTSTLAKTFFDCFYKPQYCGGYETITKALYEAESIDWKEFLDYFKRFASPSLFQRTGYILELMNKELNFKIPKEVLEFFRSKVETKTKLVPTSPSRGKFIKEWKLLDNLGKDKILGWAYGY” here?
A: not soluble

Q: For “GSHMLHWGPKYWRSLHLYAIFFSDAPSWKEKYEAIQWILNFIESLPCTRCQHHAFSYLTKNPLTLNNSEDFQYWTFAFHNNVNNRLNKKIISWSEYKNIYEQSILK”, which “soluble on expression in E. coli” value is on record?
A: soluble

Q: Which “soluble on expression in E. coli” value does the source give for “MPTKLSNKYHDEIEQNGFTVVRNFLSPQEIEKYTKASEALVQYARDGNWPHVRTRGKQFPPWPKNFSPDIWGVSGLLHPDLGELSKPFHDLYSDEKLLNVVCDILLIEKTDLSMELLNMLINPLTDFELDWHRDTIKPEVTPEEEAEDLLKFPYAGAQFNLALTEDDCLIAIPGSHNRVRTTEEREKTIDPNRRKEFITGEIRVQLQPGDLVFYNNNILHRAAYSSKNKRLTLHGSYGNVNQGKSRAKGILQHGVAEWLPRLETKNTNLKMLQEKLLNLAKEFEGVELGYALDG” here?
A: soluble

Q: For “WAIFVEQSDGHYRVRLRSKSHIINEIAKRHNGGGHPLASGANSYSLEENQAIYQ”, which “soluble on expression in E. coli” value is on record?
A: soluble

Q: For “RNRQQRPGTIKHGSALDVLLSMGFPRARAQKALASTGGRSVQTACDWLFSH”, which “soluble on expression in E. coli” value is on record?
A: soluble

Q: For “GPLGSMQLKPMEINPEMLNKVLSRLGVAGQWRFVDVLGLEEESLGSVPAPACALLLLFPLTAQHENFRKKQIEELKGQEVSPKVYFMKQTIGNSCGTMGLIHAVANNQDKLGFEDGSVLKQFLSETEKMSPEDRAKCFEKNEAIQAAHDAVAQEGQCRVDDKVNFHFILFNNVDGHLYELDGRMPFPVNHGASSEDTLLKDAAKVCREFTEREQGEVRFSAVALCKAA”, which “soluble on expression in E. coli” value is on record?
A: soluble

Q: Which “soluble on expression in E. coli” value does the source give for “MEELFCIGCGAQIQTEDKEKAGFTPASSIKKAEETGELYCQRCFRLRHYNEIVDVHITDDEFLKLLYEVGDSDALVVNVVDIFDFNGSIIPGLSRFVSGNDVLLVGNKKDILPKSVKDGKVTQWLTERAHEEGMRPVDVMLTSAQNHHAIKELIQRIEALRKGRDVYVVGVTNVGKSTLINAIIKEITGDKDVITTSRFPGTTLDKIEIPLDDGSYIFDTPGIIHRHQMAHYLSAKDLKYVSPKKEIKPKTYQLNAGQTLFLGGLGRFDFIDGDKQGFTAFFDNNLKLHRTKLDGADAFYDKHVGSLLMPPGPKELADFPKLVRHEFTIKDKTDVVFSGLGWIRVQGKTDQPTIVAAWAPEGVGVVVRKAIILEHHHHHH” here?
A: soluble
